Measured values reported in patent publication US20120148586A1 (published 2012).
Where a chain is given by its changes, count along the chain named.

Molecular target: GLP-1R (receptor addressed by the glucose-stimulated insulin secretion assay of Table 1)
Test: cell-based or functional assay

B1: peptide of GAC-9 (not tethered to an antibody) (peptide)
peptide: HXEGTFTSDVSSYLEGQAAKEFIAWLVKXR
modifications: Aib at position 2 and Aib before the C-terminal R; linking residue K26 (so in the source)
EC50 (µM), glucose-stimulated insulin secretion (GSIS) assay: 0.094 µM

B2: peptide of GAC-4 (not tethered to an antibody) (peptide)
peptide: B1 peptide with X29G
modifications: Aib at position 2; linking residue K26 (so in the source)
EC50 (µM), glucose-stimulated insulin secretion (GSIS) assay: 0.041 µM
